Assay results taken from US20180355014A1 (JUNO THERAPEUTICS, published 2018).

Columns and labels:
[1] = biological target: T1, HLA-A*11:01 (human); test: REVEAL MHC-peptide binding assay, recombinant HLA-A*11:01
T1 construct: Recombinant MHC class I molecule without the test peptide; the peptide is the other partner
Description: (§1) Specifically, assessment was of a series of overlapping 9-mer peptides derived from the sequence […] (set forth in SEQ ID NO: 7), which contains a portion of the CD28 transmembrane domain and 4-1BB costimulatory domain spanning the junction between the domains (bond joining the two amino acids noted in underline). In addition, a series of overlapping 9-mer peptides of each of a number of different variants of this portion also were assessed, each variant containing a mutation or mutations in this region as described in Example 2.
(§2) The various 9-mer overlapping peptides were synthesized and their purity tested by MALDI-TOF Mass Spectrometry.

[2] = biological target: T2, HLA-B*08:01 (human); test: REVEAL MHC-peptide binding assay, recombinant HLA-B*08:01
T2 construct: Recombinant MHC class I molecule without the test peptide; the peptide is the other partner
Description: as §1, §2

In Vitro Score [1] | In Vitro Score [2] | Binder
4.8 % of positive control peptide | 28.5 % of positive control peptide | WVKRGRKKL (synthetic 9-mer) [WVKRGRKKL (SEQ ID NO: 22)]
4.4 % of positive control peptide | 6.2 % of positive control peptide | WVSRGRKKL (synthetic 9-mer; the entry already carries the mutation) [WVSRGRKKL (SEQ ID NO: 29)]
22.1 % of positive control peptide | 65.7 % of positive control peptide | WVKRGLKKL (synthetic 9-mer; the entry already carries the mutation) [WVKRGLKKL (SEQ ID NO: 64)]
5.9 % of positive control peptide | – | WVQRGSKKL (synthetic 9-mer; the entry already carries the mutations) [WVQRGSKKL (SEQ ID NO: 80)]
6.7 % of positive control peptide | 4.3 % of positive control peptide | WVKRGRKKS (synthetic 9-mer; the entry already carries the mutation) [WVKRGRKKS (SEQ ID NO: 89)]
5.6 % of positive control peptide | 19.2 % of positive control peptide | WVHRGRKKL (synthetic 9-mer; the entry already carries the mutation) [WVHRGRKKL (SEQ ID NO: 43)]
3.8 % of positive control peptide | 11.4 % of positive control peptide | WVQRGAKKL (synthetic 9-mer; the entry already carries the mutations) [WVQRGAKKL (SEQ ID NO: 84)]
3.2 % of positive control peptide | 4 % of positive control peptide | WVLRGRKKL (synthetic 9-mer; the entry already carries the mutation) [WVLRGRKKL (SEQ ID NO: 36)]
0.4 % of positive control peptide | 0.1 % of positive control peptide | FIIFWVKRG (synthetic 9-mer) [FIIFWVKRG (SEQ ID NO: 18)]
2.4 % of positive control peptide | 0.2 % of positive control peptide | FIIFWVLRG (synthetic 9-mer; the entry already carries the mutation) [FIIFWVLRG (SEQ ID NO: 32)]
5.1 % of positive control peptide | 0.4 % of positive control peptide | FIIFWVSRG (synthetic 9-mer; the entry already carries the mutation) [FIIFWVSRG (SEQ ID NO: 25)]
1.5 % of positive control peptide | 0.6 % of positive control peptide | FIIFWVQRG (synthetic 9-mer; the entry already carries the mutation) [FIIFWVQRG (SEQ ID NO: 52)]
19.5 % of positive control peptide | 0.1 % of positive control peptide | IIFWVKRGH (synthetic 9-mer; the entry already carries the mutation) [IIFWVKRGH (SEQ ID NO: 65)]
29 % of positive control peptide | 0 % of positive control peptide | IIFWVQRGN (synthetic 9-mer; the entry already carries the mutations) [IIFWVQRGN (SEQ ID NO: 85)]
16.9 % of positive control peptide | 0.1 % of positive control peptide | IIFWVQRGS (synthetic 9-mer; the entry already carries the mutations) [IIFWVQRGS (SEQ ID NO: 77)]
25.9 % of positive control peptide | 1.9 % of positive control peptide | AFIIFWVKR (synthetic 9-mer) [AFIIFWVKR (SEQ ID NO: 17)]
15 % of positive control peptide | 0 % of positive control peptide | AFIIFWVQR (synthetic 9-mer; the entry already carries the mutation) [AFIIFWVQR (SEQ ID NO: 51)]
17.2 % of positive control peptide | 0.2 % of positive control peptide | AFIIFWVLR (synthetic 9-mer; the entry already carries the mutation) [AFIIFWVLR (SEQ ID NO: 31)]
6.5 % of positive control peptide | 0 % of positive control peptide | FWVKRGRKK (synthetic 9-mer) [FWVKRGRKK (SEQ ID NO: 21)]

In Vitro Score [1] | In Vitro Score [2] | Binder
27.6 % of positive control peptide | 0.4 % of positive control peptide | FWVKRGHKK (synthetic 9-mer; the entry already carries the mutation) [FWVKRGHKK (SEQ ID NO: 67)]
5.9 % of positive control peptide | 0 % of positive control peptide | FWVQRGNKK (synthetic 9-mer; the entry already carries the mutations) [FWVQRGNKK (SEQ ID NO: 87)]
7.3 % of positive control peptide | 0.1 % of positive control peptide | FWVKRGNKK (synthetic 9-mer; the entry already carries the mutation) [FWVKRGNKK (SEQ ID NO: 75)]
25.3 % of positive control peptide | – | FWVKRGLKK (synthetic 9-mer; the entry already carries the mutation) [FWVKRGLKK (SEQ ID NO: 63)]
– | 0 % of positive control peptide | FWVARGRKK (synthetic 9-mer; the entry already carries the mutation) [FWVARGRKK (SEQ ID NO: 48)]
5.7 % of positive control peptide | 1.9 % of positive control peptide | FWVQRGRKK (synthetic 9-mer; the entry already carries the mutation) [FWVQRGRKK (SEQ ID NO: 55)]
5.6 % of positive control peptide | 0.1 % of positive control peptide | FWVKRGSKK (synthetic 9-mer; the entry already carries the mutation) [FWVKRGSKK (SEQ ID NO: 59)]
6.8 % of positive control peptide | 0 % of positive control peptide | FWVQRGSKK (synthetic 9-mer; the entry already carries the mutations) [FWVQRGSKK (SEQ ID NO: 79)]
6.3 % of positive control peptide | 0 % of positive control peptide | FWVSRGRKK (synthetic 9-mer; the entry already carries the mutation) [FWVSRGRKK (SEQ ID NO: 28)]
5.6 % of positive control peptide | 0 % of positive control peptide | FWVHRGRKK (synthetic 9-mer; the entry already carries the mutation) [FWVHRGRKK (SEQ ID NO: 42)]
13.2 % of positive control peptide | 0.3 % of positive control peptide | FWVKRGAKK (synthetic 9-mer; the entry already carries the mutation) [FWVKRGAKK (SEQ ID NO: 71)]
18.3 % of positive control peptide | 0 % of positive control peptide | FWVQRGAKK (synthetic 9-mer; the entry already carries the mutations) [FWVQRGAKK (SEQ ID NO: 83)]
5 % of positive control peptide | 0 % of positive control peptide | FWVLRGRKK (synthetic 9-mer; the entry already carries the mutation) [FWVLRGRKK (SEQ ID NO: 35)]
2.8 % of positive control peptide | – | VAFIIFWVA (synthetic 9-mer; the entry already carries the mutation) [VAFIIFWVA (SEQ ID NO: 44)]
12.3 % of positive control peptide | 0 % of positive control peptide | VAFIIFWVH (synthetic 9-mer; the entry already carries the mutation) [VAFIIFWVH (SEQ ID NO: 37)]
3.9 % of positive control peptide | – | VAFIIFWVQ (synthetic 9-mer; the entry already carries the mutation) [VAFIIFWVQ (SEQ ID NO: 50)]
29.3 % of positive control peptide | 0.4 % of positive control peptide | IFWVKRGRK (synthetic 9-mer) [IFWVKRGRK (SEQ ID NO: 20)]
29.3 % of positive control peptide | 0 % of positive control peptide | IFWVLRGRK (synthetic 9-mer; the entry already carries the mutation) [IFWVLRGRK (SEQ ID NO: 34)]
103 % of positive control peptide | 0 % of positive control peptide | IFWVQRGSK (synthetic 9-mer; the entry already carries the mutations) [IFWVQRGSK (SEQ ID NO: 78)]
